{"source": "paper PMC9374677", "about": "(2022)", "binders": {"B1": {"name": "Staphylococcal superantigen-like protein 10 (SSL10), residues 31-227, C-terminal 6xHis (natural protein)", "chain": "KQNQKSVNKHDKEALYRYYTGKTMEMKNISALKHGKNNLRFKFRGIKIQVLLPGNDKSKFQQRSYEGLDVFFVQEKRDKHDIFYTVGGVIQNNKTSGVVSAPILNISKEKGEDAFVKGYPYYIKKEKITLKELDYKLRKHLIEKYGLYKTISKDGRVKISLKDGSFYNLDLRSKLKFKYMGEVIESKQIKDIEVNLK"}}, "biological_target": "T1, MBP-TNFR1^ECD deletion mutant ΔCRD1 (human, UniProt P19438 22-211)", "T1 chain": "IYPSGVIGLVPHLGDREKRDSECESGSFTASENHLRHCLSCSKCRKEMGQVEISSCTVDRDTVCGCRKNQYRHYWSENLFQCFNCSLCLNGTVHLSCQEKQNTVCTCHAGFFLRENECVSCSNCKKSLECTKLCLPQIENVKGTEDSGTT", "assay": "ITC", "data": [{"binder": "B1", "values": [{"measurement": "Kd", "result": 11.1, "unit": "µM"}]}]}
